Measured values from patent publication US20110143379A1 (Johns Hopkins, published 2011).

Target: T1, albumin (in whole human plasma) (human, UniProt P02768 25-609)
T1 construct: Endogenous plasma protein, not a purified reagent
Assay: ethanol precipitation of human plasma spiked with TRX; fractions followed by western blot

T1 sequence (P02768 25-609 limits assumed): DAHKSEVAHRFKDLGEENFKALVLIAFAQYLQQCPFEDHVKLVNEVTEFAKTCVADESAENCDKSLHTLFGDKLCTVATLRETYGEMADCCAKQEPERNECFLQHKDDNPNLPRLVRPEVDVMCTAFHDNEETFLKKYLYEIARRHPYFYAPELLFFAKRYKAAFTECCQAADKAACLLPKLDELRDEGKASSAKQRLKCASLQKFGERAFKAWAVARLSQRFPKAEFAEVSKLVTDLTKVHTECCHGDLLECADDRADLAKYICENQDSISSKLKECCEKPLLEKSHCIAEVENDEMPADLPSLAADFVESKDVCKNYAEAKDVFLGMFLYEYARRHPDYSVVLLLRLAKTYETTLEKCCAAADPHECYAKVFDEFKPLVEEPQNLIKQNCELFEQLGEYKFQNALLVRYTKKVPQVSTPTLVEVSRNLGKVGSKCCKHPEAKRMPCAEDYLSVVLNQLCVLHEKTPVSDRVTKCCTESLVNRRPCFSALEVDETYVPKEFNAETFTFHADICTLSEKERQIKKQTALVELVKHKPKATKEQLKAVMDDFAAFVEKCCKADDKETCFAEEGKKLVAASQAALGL

binding result: binds
B1: recombinant human thioredoxin (TRX), full length (enzyme)
chain: VKQIESKTAFQEALDAAGDKLVVVDFSATWCGPCKMIKPFFHSLSEKYSNVIFLEVDVDDCQDVASECEVKCMPTFQFFKKGQKVGEFSGANKEKLEATINELV
notes: It was denatured on SDS gels for the western blots; also called full-length thioredoxin
